We go through two molecules from patent US20240343803A1 (SHANDONG SIMCERE BIOPHARMACEUTICAL, published 2024).

Like-named read-outs stand apart in the source and are kept apart here.

Test [1] addresses T1, cynomolgus monkey PVRIG (Novoprotein, Cat NO. C09B) (cynomolgus monkey, UniProt A0A2K5WVV8 41-171).
T1 construct: Bought protein; construct not described; also called cynomolgus monkey PVRIG protein
T1 sequence: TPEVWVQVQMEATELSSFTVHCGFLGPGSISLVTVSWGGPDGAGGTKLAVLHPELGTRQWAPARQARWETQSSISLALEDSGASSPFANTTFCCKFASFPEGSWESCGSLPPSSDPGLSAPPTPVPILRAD
As to the kind of experiment: ELISA, coated cynomolgus PVRIG. How it is done: (§1) The ELISA plate was pre-coated with 50 μL/well of 1.0 μg/mL human PVRIG (AcroBiosystems, Cat NO. PVG-H52H4) or 50 μL/well of 0.5 μg/mL cynomolgus monkey PVRIG (Novoprotein, Cat NO. C09B). The tested antibodies were serially diluted (initial concentration 13 nM, 3-fold serial dilution, 12 concentration points), added into the plate (50 μL/well) and incubated at 37° C. for 2.0 hours. After washing the plate, the Goat anti-human IgG Fc-HRP (Merck, Cat NO. AP113P) working solution (dilution ratio 1:5000, 50 μL/well) were added into wells and incubated at 37° C. for 1.0 hour. A HRP substrate, TMB (KPL, Cat NO. 5120-0077) was added into wells after washing the plate again and incubated at 37° C. for 10 minutes for color development. After adding a termination solution to terminate the reaction, the absorbance value was read by a microplate reader (PE, Ensight-HH3400). An antibody binding curve was drawn with molar concentration of antibodies as the abscissa and the corresponding OD value as the ordinate. The EC50 value was calculated by using a Four Parameter Logistic Fit (GraphPadPrism9). The smaller the EC50 value, the stronger the ability of the antibodies binds to human or cynomolgus monkey PVRIG. The positive control antibodies are COM701-hIgG1, PVRIG-A50-H1b and PVRIG-A105-H1; and the negative control antibodies are anti-Fluorescein-hIgG1 (in house). The binding results of the 4 humanized bispecific antibodies to human PVRIG protein are shown in FIG. 41 and Tables 40 and 41, and the binding results to cynomolgus monkey PVRIG are shown in FIG. 42 and Tables 40 and 41. […] The binding of LC-BsAb-002 and LC-BsAb-006 to human PVRIG protein is slightly weaker than that of the corresponding monoclonal antibody (PVRIG-A50-H1b) and the positive control (COM701-hIgG1).
(An ELISA detects its analyte on a solid surface through an enzyme-linked reagent.)

Test [2] concerns the target T2, human PVRIG (AcroBiosystems, Cat NO. PVG-H52H4) (human, UniProt Q6DKI7 41-171, limits assumed).
T2 construct: Bought protein with His tag; also called human PVRIG-his; human PVRIG protein
T2 sequence (looked up): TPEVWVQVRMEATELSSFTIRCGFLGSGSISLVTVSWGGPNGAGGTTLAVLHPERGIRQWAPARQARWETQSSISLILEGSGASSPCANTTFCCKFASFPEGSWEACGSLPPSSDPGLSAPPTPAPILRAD
Nature of the test: ELISA, coated human PVRIG. How it is done: as §1

In test [3] the target is T2, human PVRIG (AcroBiosystems, Cat NO. …). Nature of the test: ELISA, coated human PVRIG. How it is done: as §1, with “The smaller the EC50 value, the stronger the ability of the antibodies binds to human or cynomolgus monkey PVRIG.” left out
This is another data set of the same source.

Test [4] concerns the target T3, human PVRIG-mFc protein (Acro, PVG-H5253) (human, UniProt Q6DKI7 41-171, limits assumed).
T3 construct: extracellular domain; Bought protein; also called PVRIG-ECD-mFc; not shown: mouse Fc tag of the bought protein
T3 sequence (looked up): T2 sequence (looked up)
As to the kind of experiment: HTRF competition, PVRIG-mFc with Bio-CD112-His as competitor. As to the method:
(§2) PVRIG-mFc (ACRO Biosystems, Cat NO. PVG-H5253) and Bio-CD112-His (Sino Biological, Cat NO. 10005-H08H) were diluted to 0.5 μg/mL, respectively. Streptavidin-Tb cryptate (Cisbio) and PAb anti mouse IgG-XL665 (Cisbio) were diluted to 20 μg/mL and 0.8 μg/mL, respectively. The tested antibodies were diluted from the initial concentration of 120 nM, by 3-fold serial dilution for 12 concentration points. The diluted PVRIG-mFc, Bio-CD112-His, Streptavidin-Tb Crytate and PAb anti mouse IgG-XL665 were mixed at 1:1:1:1, and added into a 384-well plate (PE, Cat NO. 6007299), 10 μL/well. 10 μL/well of serially diluted antibodies was added into wells, centrifuged at 1500 rpm for 30s, and incubated at 37° C. for 1 hour. The plate was read on the microplate reader (PE, Envision2105) with wavelengths of 665 nm and 620 nm. […] A Four Parameter Logistic Fit was performed with the molar concentration of the antibodies as the abscissa and Ratio as the ordinate to calculate IC50. The smaller the IC50, the better the effect of the antibody block the binding of PVRIG to PVRL2. The positive controls in this experiment are COM701-hIgG1, PVRIG-A50-H1b and PVRIG-A105-H1; and the negative control antibody is anti-Fluorescein-hIgG1 (in house). The effect of 4 humanized bispecific antibodies blocking the binding of PVRIG to PVRL2 is shown in FIG. 51 and Tables 44 and 45. […] The blocking effect of LC-BsAb-002 is better than its corresponding monoclonal antibody (PVRIG-A50-H1b) and the positive control (COM701-hIgG1). The blocking effect of LC-BsAb-006 is better than its corresponding monoclonal antibody (PVRIG-A50-H1b), but slightly weaker than the positive control (COM701-hIgG1). The blocking effects of LC-BsAb-009 and LC-BsAb-010 are not as good as their corresponding monoclonal antibodies (PVRIG-A105-H1) and the positive control (COM701-hIgG1).
(Time-resolved FRET reads energy transfer from a long-lived donor to a nearby acceptor.)

The target in test [5] is T1, cynomolgus monkey PVRIG (Novoprotein, …). As to the kind of experiment: ELISA, coated cynomolgus PVRIG. How it is done: as §1, with “The smaller the EC50 value, the stronger the ability of the antibodies binds to human or cynomolgus monkey PVRIG.” left out
The source holds these as a separate data set.

Test [6] has as its target T3, human PVRIG-mFc protein (Acro, …). Nature of the test: HTRF competition, PVRIG-mFc with Bio-CD112-His as competitor. How it is done: as §2
The source holds these as a separate data set.

For test [7] the target is unchanged. Nature of the test: FACS blocking of PVRIG-mFc binding to CHO-K1-CD112 cells; competitor CD112. In a few lines: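 Zombie violet-stained CHO-K1-CD112 cells were added for 30 min at 4° C, then PE goat anti-mouse IgG Fc (1:250) was applied and mean fluorescence intensity read on a BD Canto II. Curves were fitted with four-parameter logistic models in GraphPad Prism 9. IC50 and curve AUC were reported as percentages of the reference antibody values.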

B1: COM701-hIgG1 (antibody, V domains shown)
VH: QVQLVQSGAEVKKPGASVKVSCKASGYTFTDYNINWVRQAPGQGLEWMGYIYPYIGGSGYAQKFQGRVTMTRDTSTSTVYMELSSLRSEDTAVYYCAREDKTARNAMDYWGQGTLVTVSS
VL: DIQMTQSPSSLSASVGDRVTITCRVSENIYSNLAWYQQKPGKAPKLLIYEATNLAEGVPSRFSGSGSGTDFTLTISSLQPEDFATYYCQHFWGTPYTFGQGTKLEIK
notes: Anti-PVRIG positive control
Broadly, the EC50 is the midpoint of the concentration-response curve. As usually defined, the IC50 is the concentration that inhibits the measured activity by half. Consider B1, for which the “% relative activity COM701-hIgG1/tested antibody” value in test [1], in test [2], in test [3], in test [4], in test [5] and in test [6] was 100% in each case. Moreover, the “% relative activity PVRIG-A105-H1/tested antibody” value amounted to 66% in test [1], 25.6% in test [2] and 93.4% in test [4]. The EC50 in test [1] amounted to 0.0363 nM; in test [2] it was 0.248 nM; in test [3], 0.248 nM; in test [5] it was 0.0363 nM. Further, the figures for the “% relative activity PVRIG-A50-H1b/tested antibody” value in test [3], in test [5] and in test [6] were 153%, 105% and 150%, respectively. Besides, the half-inhibitory concentration (IC50) in test [4] and in test [6] was 0.137 nM in each case.

B2: PVRIG-A105-H1 (Fc fusion)
chain: EVQLVESGGGLVQPGGSLRLSCAASGRTFDRHTMSWFRQAPGKEREFVATASRIPGDTYYVDSVKGRFTISRDNAKNSLYLQMNSLRAEDTAVYYCAATSAYCSEVDCYEKGSWYDNWGQGTMVTVSS
notes: VHH-human IgG1 Fc format is stated for the parental VHH antibodies; not restated for the humanized variants; also called A105.VH1; not shown: human IgG1 hinge-CH2-CH3 (Fc)
As for B2, in test [1], the “% relative activity COM701-hIgG1/tested antibody” value turned out to be 152%, the “% relative activity PVRIG-A105-H1/tested antibody” value amounted to 100% and the half-maximal effective concentration (EC50) is 0.0239 nM. In test [2], the “% relative activity COM701-hIgG1/tested antibody” value was 390%, the “% relative activity PVRIG-A105-H1/tested antibody” value was 100% and the EC50 was found to be 0.0636 nM. In test [4], the “% relative activity COM701-hIgG1/tested antibody” value was found to be 107%, the “% relative activity PVRIG-A105-H1/tested antibody” value is 100% and the IC50 is 0.128 nM. Also, in test [7], the “% AUC to COM701-hIgG4” value came out at 111%, the “% AUC to SO35-hIgG1” value is 64.2%, the “% AUC to parental Ab” value stood at 97.9% and the “% IC50 to COM701-hIgG4” value was 104%. In addition, in test [7], the “% IC50 to SO35-hIgG1” value was found to be 88.1% and the “% IC50 to parental Ab” value came out at 99.7%.
